In paper doi:10.1101/2023.10.24.563883:

Biological target: LPHN2-ICL1-Nluc (UniProt O95490)
Assay: FRET or BRET

Chain of LPHN2-ICL1-Nluc (O95490 26-1459): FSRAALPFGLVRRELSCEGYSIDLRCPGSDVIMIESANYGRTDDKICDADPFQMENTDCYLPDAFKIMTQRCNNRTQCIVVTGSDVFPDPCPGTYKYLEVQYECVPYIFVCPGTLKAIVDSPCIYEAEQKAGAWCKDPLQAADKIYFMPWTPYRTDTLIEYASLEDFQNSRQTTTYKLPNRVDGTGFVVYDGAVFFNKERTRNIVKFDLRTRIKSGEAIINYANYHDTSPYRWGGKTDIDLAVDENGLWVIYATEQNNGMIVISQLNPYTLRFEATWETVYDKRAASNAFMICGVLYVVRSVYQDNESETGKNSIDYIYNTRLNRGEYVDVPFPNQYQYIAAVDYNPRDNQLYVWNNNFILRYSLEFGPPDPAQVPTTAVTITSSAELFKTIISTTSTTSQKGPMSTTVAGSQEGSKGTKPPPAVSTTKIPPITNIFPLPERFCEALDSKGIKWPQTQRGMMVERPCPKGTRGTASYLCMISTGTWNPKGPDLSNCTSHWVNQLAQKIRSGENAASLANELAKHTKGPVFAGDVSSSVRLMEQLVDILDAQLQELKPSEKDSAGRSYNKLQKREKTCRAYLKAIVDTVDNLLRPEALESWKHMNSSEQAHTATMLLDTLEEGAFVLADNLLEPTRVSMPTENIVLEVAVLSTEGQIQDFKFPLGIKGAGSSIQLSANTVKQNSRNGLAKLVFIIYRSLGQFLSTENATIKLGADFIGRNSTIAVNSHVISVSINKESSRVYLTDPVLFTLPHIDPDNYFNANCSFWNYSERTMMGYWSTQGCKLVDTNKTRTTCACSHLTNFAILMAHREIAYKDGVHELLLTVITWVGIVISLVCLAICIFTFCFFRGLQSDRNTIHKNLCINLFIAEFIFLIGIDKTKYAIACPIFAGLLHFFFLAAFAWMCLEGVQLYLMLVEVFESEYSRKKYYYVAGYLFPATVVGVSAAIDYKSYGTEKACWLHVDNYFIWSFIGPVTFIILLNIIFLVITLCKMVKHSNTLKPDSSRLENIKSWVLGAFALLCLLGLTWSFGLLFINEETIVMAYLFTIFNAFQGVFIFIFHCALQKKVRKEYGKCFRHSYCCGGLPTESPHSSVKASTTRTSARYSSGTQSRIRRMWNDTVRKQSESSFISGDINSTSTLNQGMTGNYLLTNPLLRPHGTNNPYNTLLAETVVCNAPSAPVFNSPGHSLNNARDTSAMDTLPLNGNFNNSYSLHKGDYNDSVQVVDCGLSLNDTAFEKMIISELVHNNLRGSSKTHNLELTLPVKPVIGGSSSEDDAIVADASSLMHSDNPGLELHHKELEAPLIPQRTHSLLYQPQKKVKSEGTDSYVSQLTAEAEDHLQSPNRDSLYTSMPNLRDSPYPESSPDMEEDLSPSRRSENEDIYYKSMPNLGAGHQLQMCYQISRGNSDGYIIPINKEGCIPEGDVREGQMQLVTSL

EC50 of force for the increase of the BRET signal: 5.2 pN | stoichiometry N (TMC1 per LPHN2): 2
Substance: TMC1-C-YFP (from UniProt Q8TDI8 1-760) (natural protein)
